Assay results from patent publication US20060127400A1, “Activation of regulatory T cells by alpha-melanocyte stimulating hormone” (THE SCHEPENS EYE RESEARCH INSTITUTE, INC., priority 1999, published 2006).

How the values were obtained:
primed Th1 cells = test: in vitro regulatory T cell activity assay (IFN-γ of freshly activated primed Th1 cells in coculture); type: cell-based, mouse (BALB/c); conditions: for induction of regulatory T cell activity (suppression of IFN-γ of other Th1 cells), factor individually: α-MSH 30 pg/ml or TGF-β 5.0 ng/ml; for induction of regulatory T cell activity, TGF-β added 4 hours after TCR-stimulation in the presence of α-MSH: α-MSH 30 pg/ml, TGF-β 5.0 ng/ml
Experimental: (§1) Assay For In Vitro Regulatory T Cell Activity. The α-MSH-treated TCR-stimulated T cells, as described above, were cultured for 48 hours. The plate was spun down at 250×g for 10 minutes and supernatant discarded. Freshly isolated, enriched in vivo primed Th1 cells (4×10^6 cells/ml) mixed with 2C11 (1 μg/ml) were added (200 μl) to the wells of the α-MSH pre-treated, TCR-stimulated T cells and incubated for 48 hours. The culture supernatant was assayed for IFN-γ by sandwich ELISA. For long term cultures, primed T cells were TCR-stimulated in the presence of α-MSH for 48 hours. The plate was centrifuged and supernatant was exchanged for 200 μl of 2C11 (1 μg/ml) in fresh media, no x-MSH. The cultures were incubated for 72 hours and the conditioned media was again exchanged for fresh media and 2C11 antibody. The cultures were incubated for an additional 48 hours, centrifuged, supernatant discarded, and added were fresh in vivo primed Th1 cells and 2C11 antibody. Soluble TGF-β receptor II (sTGF-βRII, R&D Systems) was added to some of the cultures. These cultures were incubated for 48 hours and the culture supernatant was assayed for IFN-γ by sandwich ELISA.
Primed T cells (4×10^5 cells) were enriched and activated with anti-CD3 in the presence (α-MSH+anti-CD3) or absence (+anti-CD3) of α-MSH (30 pg/ml). After 48 hours of incubation the cells were mixed with freshly enriched primed Th1 cells (4×10^5 cells) and anti-CD3 antibody and cultured for 48 hours. The culture supernatant was assayed for IFN-γ by sandwich ELISA. Results are presented as IFN-γ pg/ml±SEM of eight independent experiments.
In addition, T cells initial TCR-stimulated in the presence of α-MSH and subsequently restimulated twice (Day 2 and Day 5) with anti-TCR antibody in the absence of α-MSH, still suppressed IFN-γ production by freshly activated primed Th1 cells (FIG. 6). […] Primed T cells (4×10^5 cells) were enriched and activated with anti-CD3 antibody in the presence of 30 pg/ml α-MSH (α-MSH+anti-CD3) or absence of α-MSH (+anti-CD3). After 48 hours of incubation the cells were centrifuged and resuspended in fresh media with anti-CD3 antibodies and incubated for 72 hours (day 5). The cells were again washed and re-stimulated with anti-CD3 and incubated for an additional 48 hours (day 7). After the final incubation the treated T cells (4×10^5 cells) were mixed with freshly enriched primed Th1 cells (4×10^5 cells) and anti-CD3 antibody and cultured for 48 hours. The culture supernatant was assayed for IFN-γ by sandwich ELISA. Results are presented as IFN-γ pg/ml±SEM of eight independent experiments. […] Therefore, α-MSH mediates induction of functionally active, regulatory Th3 cells.
TGF-β and α-MSH induce regulatory T cell activity. Primed T cells were TCR-stimulated in the presence or absence of 30 pg/ml α-MSH with TGF-β1 or TGF-β2 (5.0 ng/ml) added 4 hours after TCR-stimulation. The treated T cells (Regulatory T cells) were added to cultures of freshly activated primed T cells. Culture supernatants were assayed for IFN-γ 48 hours after addition of treated T cells. Data are presented as percent suppression±SEM of IFN-γ produced by freshly activated T cells with no added regulatory cells, from eight independent experiments.

primed T cells [1] = test: proliferation of TCR-stimulated primed T cells (3H-thymidine incorporation); type: cell-based, mouse (BALB/c); conditions: for T cell proliferation, increasing concentrations of TGF-β: 0.005-5.0 ng/ml, regardless of the presence of α-MSH 30 pg/ml; for T cell proliferation, TGF-β added from the start of TCR-stimulation through 6 hours later: no α-MSH
primed T cells [2] = test: total TGF-β production by TCR-stimulated primed T cells, Mv1Lu (CCL-64) bioassay; type: cell-based, mouse (BALB/c); conditions: α-MSH 30 pg/ml, TGF-β 5.0 ng/ml, 48 hours
Experimental: TGF-β bioassay. To measure total TGF-β, 100 μl of conditioned media was pretreated according to standard procedures (24) with 10 μl 1N HCL to lower the media pH to 2 and incubated for 1 hour at 4° C. The acid was neutralized with 20 μl of a 1:1 mixture of 1N NaOH: 1M HEPES returning the culture supernatant to a pH 7.3. The transiently acidified conditioned media was then used in the Mv1Lu assay; diluted 1:4 in EMEM+0.5% FBS. To the wells of a Falcon 96-well flat-bottom plate, 100 μl of diluted transiently acidified samples were added with 100 μl of 1×10^5 Mv1Lu cells (CCL-64; ATCC, Rockville, Md.). The plate was incubated for 20 hours at 37° C., 5% CO2 followed by the addition of 20 μl of 50 μCi/ml 3H-thymidine and the plate was incubated for an additional 4 hours. Supernatant was discarded and 50 μl of 10× Trypsin-EDTA (Biowhittaker, Walkersville, Md.) solution was added to each well and the plate was incubated for 15 minute at 37° C. The cells were collected onto filter paper using a Tomtec Plate Harvester 96 and counts per minute (CPM) of incorporation 3H-thymidine was measured using a Wallac 1205 Betaplate Liquid Scintillation Counter. Cultures of known amounts of purified activated TGF-β1, 20 ng/ml to 0.2 pg/ml (R&:D Systems), were prepared in the same plate for calculating a standard curve to quantify the concentration of total TGF-β in the samples.
Primed T Cell In Vitro Assays. From draining lymph nodes of BALB/c mice immunized 7 days previously with MT-Ag, primed T cells were isolated using CD3 enrichment columns (R&D Systems). T-cells (4×10^5 cells) suspended in serum-free media were added to the wells of a 96 well, round bottom plate (Corning). To the wells were added α-MSH (30 pg/ml) and anti-TCR antibody (2C11; 1 μg/ml) diluted in serum-free culture media. Various concentrations of TGF-β1 or TGF-β2 in media were added. In a second set of experiments TGF-β1 or TGF-β2 at a fixed concentration of 5 ng/ml were added to the wells at various times (0, 2, 4 and 6 hours) after addition of anti-TCR antibody. The cultures were incubated for 24 hours and 0.5 μCi of 3H-thymidine (NEM, Boston, Mass.) was added to the wells and the cultures were incubated for an additional 24 hours. The cells were collected and incorporated radiolabeled was measured by scintillation counting. Production of TGF-β by the treated primed T cells was done by centrifuging the culture plates 24 hours after the addition of anti-TCR antibody, removing the supernatant, washing the cultures once and adding fresh media. […]
FIG. 4 is a bar graph of TGF-β production by primed T cells TCR-stimulated in the presence of α-MSH. […] Significance (p=0.05) was determined by Student's t-test between TGF-β concentrations in cultures of activated α-MSH treated T cells and T cells activated in the absence of α-MSH. […]

TGF-β = test: in vitro regulatory T cell assay with soluble TGF-β receptor type II added; type: cell-based, mouse; conditions: increasing amounts added to cocultures, 48 hours
Experimental: as §1
α-MSH induced regulatory T cells that through TGF-β suppress activation of other T cells. […] The regulatory T cells were washed and added to cultures of freshly TCR-stimulated primed T cells as described for FIG. 15. […]

TGF-β1: purified activated TGF-β1 (R&D Systems), transforming growth factor
induction of regulatory T cell activity (suppression of IFN-γ of other Th1 cells), factor individually (primed Th1 cells): could not alone or with α-MSH induce regulatory T cells
induction of regulatory T cell activity, TGF-β added 4 hours after TCR-stimulation in the presence of α-MSH (primed Th1 cells): antagonized α-MSH-mediated induction of regulatory T cells
T cell proliferation, increasing concentrations of TGF-β (primed T cells [1]): suppressed
T cell proliferation, low concentrations of TGF-β (primed T cells [1]; TCR-stimulated primed T cells, FIG. 9): either no effect or enhanced
T cell proliferation, TGF-β added from the start of TCR-stimulation through 6 hours later (primed T cells [1]; TGF-β 5.0 ng/ml): suppressed
α-MSH-induced TGF-β production after addition of TGF-β at various times after TCR-stimulation (primed T cells [2]): did not change

B1: TGF-β2: recombinant / purified human transforming growth factor-β2 (R&D Systems) (protein, UniProt P61812 303-414, looked up)
Transforming growth factor …: ALDAAYCFRNVQDNCCLRPLYIDFKRDLGWKWIHEPKGYNANFCAGACPYLWSSDTQHSRVLSLYNTINPEASASPCCVSQDLEPLTILYYIGKTPKIEQLSNMIVKSCKCS
modifications: Transforming growth factor beta-2
induction of regulatory T cell activity (suppression of IFN-γ of other Th1 cells), factor individually (primed Th1 cells): induced regulatory T cell activity
induction of regulatory T cell activity, TGF-β added 4 hours after TCR-stimulation in the presence of α-MSH (primed Th1 cells): enhanced the regulatory activity
T cell proliferation, increasing concentrations of TGF-β (primed T cells [1]): suppressed
T cell proliferation, TGF-β added from the start of TCR-stimulation through 6 hours later (primed T cells [1]; TGF-β 5.0 ng/ml): suppressed
T cell proliferation, TGF-β added at or later than 4 hours after TCR-stimulation (primed T cells [1]; TGF-β 5.0 ng/ml, α-MSH 30 pg/ml present): recovered
α-MSH-induced TGF-β production after addition of TGF-β at various times after TCR-stimulation (primed T cells [2]): did enhance

B2: sTGF-βRII: soluble TGF-β receptor type-two (R&D Systems), used to neutralize TGF-β activity (protein, UniProt P37173 23-166, looked up)
extracellular domain: TIPPHVQKSVNNDMIVTDNNGAVKFPQLCKFCDVRFSTCDNQKSCMSNCSITSICEKPQEVCVAVWRKNDENITLETVCHDPKLPYHDFILEDAASPKCIMKEKKKPGETFFMCSCSSDECNDNIIFSEEYNTSNPDLLLVIFQ
modifications: extracellular domain
effect on suppression of IFN-γ production mediated by α-MSH-treated T cells (TGF-β): neutralized
